In publication PMC12599251:
Where “and” joins values, the source holds several entries; their conditions need not be identical. Identical values can stand only once. Values belong to the substance of their own block, whether it stands above or below them.

How the values were obtained:
[1] = molecular target: Human Hsp90β (heat shock protein 90 beta), wild type (human) (UniProt P08238); assay: AUC; sedimentation velocity, 42,000 rpm, 20°C, 11-15 uM protein, absorbance at 280 nm, continuous c(S) distribution (SEDFIT); peroxynitrite-treated samples dialyzed beforehand
[2] = molecular target: Human Hsp90β (heat shock protein 90 beta), wild type (human) (UniProt P08238); assay: native gel or EMSA; native PAGE: 20 ug protein (1 mg/ml) on 4-20% polyacrylamide gels in native loading buffer (Tris pH 6.8, 50% glycerol); directly after purification and after incubation at 4°C or 25°C in PBS pH 7.4 for up to 48 h
[3] = molecular target: Human Hsp90β with 3-nitrotyrosine at positions 33 and 56 (human) (UniProt P08238); assay: AUC; sedimentation velocity, 42,000 rpm, 20°C, 11-15 uM protein, absorbance at 280 nm, continuous c(S) distribution (SEDFIT); peroxynitrite-treated samples dialyzed beforehand
[4] = molecular target: Human Hsp90β treated with 0.5 mM peroxynitrite (human) (UniProt P08238); assay: as above
[5] = molecular target: Human Hsp90β with 3-nitrotyrosine at position 33 (human) (UniProt P08238); assay: as above
[6] = molecular target: Human Hsp90β with 3-nitrotyrosine at position 33 (human) (UniProt P08238); assay: as above; remark: listed apart in the source
[7] = molecular target: Human Hsp90β with 3-nitrotyrosine at position 33 (human) (UniProt P08238); assay: native gel or EMSA; native PAGE: 20 ug protein (1 mg/ml) on 4-20% polyacrylamide gels in native loading buffer (Tris pH 6.8, 50% glycerol); directly after purification and after incubation at 4°C or 25°C in PBS pH 7.4 for up to 48 h
[8] = molecular target: Human Hsp90β with 3-nitrotyrosine at position 56 (human) (UniProt P08238); assay: AUC; sedimentation velocity, 42,000 rpm, 20°C, 11-15 uM protein, absorbance at 280 nm, continuous c(S) distribution (SEDFIT); peroxynitrite-treated samples dialyzed beforehand
[9] = molecular target: Human Hsp90β with 3-nitrotyrosine at position 56 (human) (UniProt P08238); assay: native gel or EMSA; native PAGE: 20 ug protein (1 mg/ml) on 4-20% polyacrylamide gels in native loading buffer (Tris pH 6.8, 50% glycerol); directly after purification and after incubation at 4°C or 25°C in PBS pH 7.4 for up to 48 h

Chain of Human Hsp90β with 3-nitrotyrosine at positions 33 and 56, P08238 1-724 (natural protein; 3-nitrotyrosine at 33 and at 56 (sole oxidative modifications); 3-nitrotyrosine at 33 and at 56 (sole oxidative (P08238 whole entry): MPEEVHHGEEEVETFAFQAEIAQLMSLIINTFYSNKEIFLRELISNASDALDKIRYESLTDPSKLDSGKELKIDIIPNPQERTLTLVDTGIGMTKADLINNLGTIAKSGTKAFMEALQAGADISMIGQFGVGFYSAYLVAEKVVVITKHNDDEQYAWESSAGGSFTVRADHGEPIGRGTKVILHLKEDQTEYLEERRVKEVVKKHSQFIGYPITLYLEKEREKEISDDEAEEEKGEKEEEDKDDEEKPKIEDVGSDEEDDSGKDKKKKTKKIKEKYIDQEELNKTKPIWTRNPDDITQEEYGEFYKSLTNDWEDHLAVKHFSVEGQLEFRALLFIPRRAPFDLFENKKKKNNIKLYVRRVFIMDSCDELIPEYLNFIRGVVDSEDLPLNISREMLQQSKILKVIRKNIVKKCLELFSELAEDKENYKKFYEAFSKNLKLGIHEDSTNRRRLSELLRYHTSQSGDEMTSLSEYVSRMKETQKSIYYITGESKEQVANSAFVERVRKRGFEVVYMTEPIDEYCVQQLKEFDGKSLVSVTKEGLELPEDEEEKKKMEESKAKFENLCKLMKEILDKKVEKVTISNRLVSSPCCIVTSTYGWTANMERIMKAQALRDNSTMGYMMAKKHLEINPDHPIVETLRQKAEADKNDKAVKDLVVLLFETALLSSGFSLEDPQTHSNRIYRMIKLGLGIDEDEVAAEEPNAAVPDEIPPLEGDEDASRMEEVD
Chain of Human Hsp90β (heat shock protein 90 beta), wild type, P08238 1-724 (natural protein; other documents disagree on this pair) (P08238 whole entry): as above

Substance: Human Hsp90β with 3-nitrotyrosine at positions 33 and 56, P08238 1-724 (natural protein; 3-nitrotyrosine at 33 and at 56 (sole oxidative modifications); 3-nitrotyrosine at 33 and at 56 (sole oxidative modifications); other documents disagree on this pair)
stoichiometry N [3]: 2 and 6

Substance: Human Hsp90β treated with 0.5 mM peroxynitrite, P08238 1-724 (natural protein; nitration of Y33, Y56, Y276, Y484 and Y596 after treatment with 0.5 mM peroxynitrite; nitration of Y33, Y56, Y276, Y484 and Y596 after treatment with 0.5 mM peroxynitrite; other documents disagree on this pair)
stoichiometry N [4]: 2 and 4

Substance: Human Hsp90β with 3-nitrotyrosine at position 56, P08238 1-724 (natural protein; 3-nitrotyrosine at 56 (sole oxidative modification); 3-nitrotyrosine at 56 (sole oxidative modification); other documents disagree on this pair)
stoichiometry N [8]: 2 | stoichiometry N [9]: 2

Results, then the substance that gave them:

stoichiometry N [1]: 2 | stoichiometry N [2]: 2
Substance: Human Hsp90β (heat shock protein 90 beta), wild type, P08238 1-724 (natural protein; other documents disagree on this pair)

stoichiometry N [5]: 2 | stoichiometry N [6]: 6 | stoichiometry N [7]: 2
Substance: Human Hsp90β with 3-nitrotyrosine at position 33, P08238 1-724 (natural protein; 3-nitrotyrosine at 33 (sole oxidative modification); 3-nitrotyrosine at 33 (sole oxidative modification); other documents disagree on this pair)
